# Legend:
# [1] = Phase 1 study in healthy subjects (AB79-101): pharmacokinetics; type: in vivo, human; settings: single 0.06 mg/kg IV dose
# Method: In a phase 1 study in healthy subjects (Study AB79-101), AB79 reduced the levels of peripheral blood and natural killer (NK) cells >90% from baseline in all subjects receiving a single 0.06 mg/kg IV dose of AB79, with a maximum observed concentration (Cmax) of 0.1 μg/mL. (U.S. Pat. No. 8,362,211; U.S. International Patent Application Serial Nos. PCT/US2019/013547 and PCT/US2019/024431). […] Potent reduction of plasmablasts was observed across cohorts of patients in the RRMM trial (Study AB79-1501). […] Consequently, AB79 may be more efficient at eliminating cells expressing high levels of CD38, which could manifest as higher activity on tumor cells (e.g., improved and deeper response rates across a population of patients with myeloma).
# AB79 IV reduced the levels of peripheral blood NK cells >90% from baseline levels in all subjects receiving a single 0.06 mg/kg IV dose, with a Cmax of 0.1 μg/mL. […] As a potent and convenient second-generation anti-CD38 mAb, AB79 SC warranted therapeutic development for the treatment of multiple myeloma (MM).
# [2] = AB79-1501 study, AB79 plus PomDex combination cohort in RRMM: safety; type: in vivo
# Excerpt: This is a multicenter, dose-escalation, open-label, single-arm, Phase 1/2a study designed to determine the safety, tolerability, efficacy, PK, and immunogenicity of AB79 monotherapy in patients with RRMM, and to provide a preliminary assessment of its activity against MM.
# The phase 1 portion of the study evaluates administration of single agent AB79 for dose-limiting toxicity (DLT) to determine the MTD or the RP2D for further assessment in phase 2a. A recommended dose below the MTD is identified based on the review of safety, PK, PD (e.g., CD38 occupancy), and clinical data from the phase 1 portion of the study. The safety and tolerability of AB79 is assessed by recording and analyzing TEAEs, dose modifications, treatment discontinuations, vital signs, physical examinations, serum chemistry and hematology, urinalysis, ECGs, and concomitant medications. In phase 1, approximately 6 doses of AB79 are evaluated in ascending cohorts of 3 to 6 patients per cohort. Cohorts may be expanded by enrolling additional patients to further inform selection of the RP2D before enrolling in the Phase 2a portion of the study. In the phase 2a portion of this study, Grade 4 or higher nonhematologic toxicity is monitored starting from the first 10 enrolled patients and then every 10 patients thereafter. Additionally, a cohort of patients receive AB79 combined with the backbone regimen of pomalidomide and dexamethasone (PomDex) in patients with RRMM who have received at least 2 prior therapies and are refractory to the last therapy before study entry.
# The study provides a Confirmation Cohort and a Combination Cohort. Each Cohort is administered a dose of 300 mg AB79 subcutaneously weekly for 8 weeks during Cycles 1 and 2 (8 doses), every other week during Cycles 3 to 6 for 16 weeks (8 doses), and then once every 4 weeks until PD in subsequent cycles. Safety and available efficacy, PK, and pharmacodynamics are reviewed at least after 6 patients in each subgroup have received 1 cycle of therapy, then on an ongoing basis. […] The Combination Cohort also receives pomalidomide and dexamethasone (PomDex), and given according to product labeling (Pomalyst USPI). […] In the Combination Cohort, up to 6 patients are initially enrolled and safety in Cycle 1 reviewed. […] If 2 of 6 patients develop DLTs, an additional cohort of 6 patients is tested at a de-escalated dose; an intermediate or more conservative dose schedule may also be implemented as a means to provide an overall lower dose. A lower dose of pomalidomide is also considered based on available safety data. […] If 2 of 6 patients develop DLTs at the lower dose, this cohort is stopped for further evaluation.
# [3] = AB79 plus PomDex, RRMM, 5 patients treated
substance,measurement,setting,value
"AB79: anti-CD38 monoclonal IgG1 antibody; heavy chain SEQ ID NO:11, light chain SEQ ID NO:12",maximum observed concentration (Cmax),[1],0.1 µg/mL
same,number of DLTs (neutropenia),[2]; AB79 plus PomDex cohort,1 DLT
same,"drug-related SAEs or AEs leading to study drug discontinuation, or on-study deaths",[2]; AB79 plus PomDex combination,No
same,systemic reactions,[2]; AB79 plus PomDex combination,no systemic reactions
same,TEAE regardless of causality: cough,[2]; [3],2 patients
same,TEAE regardless of causality: neutropenia,[2]; [3],2 patients

# Source: patent US20220241413A1, “COMBINATION THERAPIES USING CD-38 ANTIBODIES” (Takeda Pharmaceutical Company Limited, priority 2019, published 2022)
